Source: patent publication US20050196844A1

Biological target: taxol stabilized microtubules prepared from phosphocellulose purified tubulin
Assay: co-sedimentation with taxol stabilized microtubules through a sucrose cushion, Western blot of pellet and supernatant

| binding efficiency | Substance |
| --- | --- |
| 50% | E. coli synthesized tau (352 residue isoform) phosphorylated in vitro by fyn (from UniProt P10636 2-758) |
| 50% | E. coli synthesized tau (352 residue isoform), non-phosphorylated (from UniProt P10636 2-758) |
